Assay results reported in US20220389118A1 (Chugai, published 2022).

T1: human FcγRIIb extracellular domain with C-terminal His tag (human, UniProt P31994 43-217)
T1 construct: extracellular domain; also called FcgRIIb
T1 sequence (looked up): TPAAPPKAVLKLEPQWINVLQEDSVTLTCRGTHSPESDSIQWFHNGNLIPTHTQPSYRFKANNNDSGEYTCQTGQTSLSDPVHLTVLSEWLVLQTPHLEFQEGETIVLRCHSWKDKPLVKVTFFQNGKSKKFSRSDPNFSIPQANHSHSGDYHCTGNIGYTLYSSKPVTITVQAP

B1: IL6R-2B128/IL6R-L (antibody, human IgG1, kappa)
heavy: QVQLQESGPGLVKPSETLSLTCAVSGHSISHDHAWSWVRQPPGEGLEWIGFISYSGITNYNPSLQGRVTISRDNSKNTLYLQMNSLRAEDTAVYYCARSLARTTAMDYWGEGTLVTVSSASTKGPSVFPLAPSSKSTSGGTAALGCLVKDYFPEPVTVSWNSGALTSGVHTFPAVLQSSGLYSLSSVVTVPSSSLGTQTYICNVNHKPSNTKVDKKVEPKSCDKTHTCPPCPAPELLGGDSVFLFPPKPKDTLMISRTPEVTCVVVDVSHEDPEVKFNWYVDGVEVHNAKTKPREEQDNSTYRVVSVLTVLHQDWLNGKEYKCKVSNKALPAPIEKTISKAKGQPREPQVYTLPPSRDELTKNQVSLTCLVKGFYPSDIAVEWESNGQPENNYKTTPPVLDSDGSFFLYSKLTVDKSRWQQGNVFSCSVMHEALHNHYTQESLSLSP
light: not shown
notes: IgG1 type
B2: IL6R-2B169/IL6R-L (antibody, human IgG1, kappa)
heavy: QVQLQESGPGLVKPSETLSLTCAVSGHSISHDHAWSWVRQPPGEGLEWIGFISYSGITNYNPSLQGRVTISRDNSKNTLYLQMNSLRAEDTAVYYCARSLARTTAMDYWGEGTLVTVSSASTKGPSVFPLAPSSKSTSGGTAALGCLVKDYFPEPVTVSWNSGALTSGVHTFPAVLQSSGLYSLSSVVTVPSSSLGTQTYICNVNHKPSNTKVDKKVEPKSCDKTHTCPPCPAPELLGGDSVFLFPPKPKDTLMISRTPEVTCVVVDVSHEDPEVKFNWYVDGVEVHNAKTKPREEQYNSTYRVVSVLTVLHQDWLNGKEYKCKISNKALPAPIEKTISKAKGQPREPQVYTLPPSRDELTKNQVSLTCLVKGFYPSDIAVEWESNGQPENNYKTTPPVLDSDGSFFLYSKLTVDKSRWQQGNVFSCSVMHEALHNHYTQESLSLSP
light: not shown
notes: IgG1 type
B3: IL6R-BP121/IL6R-L (antibody, human IgG1, kappa)
heavy: QVQLQESGPGLVKPSETLSLTCAVSGHSISHDHAWSWVRQPPGEGLEWIGFISYSGITNYNPSLQGRVTISRDNSKNTLYLQMNSLRAEDTAVYYCARSLARTTAMDYWGEGTLVTVSSASTKGPSVFPLAPSSKSTSGGTAALGCLVKDYFPEPVTVSWNSGALTSGVHTFPAVLQSSGLYSLSSVVTVPSSSLGTQTYICNVNHKPSNTKVDKKVEPKSCDKTHTCPPCPAPELLGGDSVFLFPPKPKDTLMISRTPEVTCVVVDVSHEDPEVKFNWYVDGVEVHNAKTKPREEQYNSTYRVVSVLTVLHQDWLNGKEYKCKVSNQALPAPIEKTISKAKGQPREPQVYTLPPSRDELTKNQVSLTCLVKGFYPSDIAVEWESNGQPENNYKTTPPVLDSDGSFFLYSKLTVDKSRWQQGNVFSCSVMHEALHNHYTQESLSLSP
light: not shown
notes: IgG1 type
B4: IL6R-BP112/IL6R-L (antibody, human IgG1, kappa)
heavy: QVQLQESGPGLVKPSETLSLTCAVSGHSISHDHAWSWVRQPPGEGLEWIGFISYSGITNYNPSLQGRVTISRDNSKNTLYLQMNSLRAEDTAVYYCARSLARTTAMDYWGEGTLVTVSSASTKGPSVFPLAPSSKSTSGGTAALGCLVKDYFPEPVTVSWNSGALTSGVHTFPAVLQSSGLYSLSSVVTVPSSSLGTQTYICNVNHKPSNTKVDKKVEPKSCDKTHTCPPCPAPELLGGDSVFLFPPKPKDTLMISRTPEVTCVVVDVSHEDGEVKFNWYVDGVEVHNAKTKPREEQYNSTYRVVSVLTVLHQDWLNGKEYKCKVSNKALPAPIEKTISKAKGQPREPQVYTLPPSRDELTKNQVSLTCLVKGFYPSDIAVEWESNGQPENNYKTTPPVLDSDGSFFLYSKLTVDKSRWQQGNVFSCSVMHEALHNHYTQESLSLSP
light: not shown
notes: IgG1 type
B5: IL6R-BP110/IL6R-L (antibody, human IgG1, kappa)
heavy: QVQLQESGPGLVKPSETLSLTCAVSGHSISHDHAWSWVRQPPGEGLEWIGFISYSGITNYNPSLQGRVTISRDNSKNTLYLQMNSLRAEDTAVYYCARSLARTTAMDYWGEGTLVTVSSASTKGPSVFPLAPSSKSTSGGTAALGCLVKDYFPEPVTVSWNSGALTSGVHTFPAVLQSSGLYSLSSVVTVPSSSLGTQTYICNVNHKPSNTKVDKKVEPKSCDKTHTCPPCPAPELLGGDSVFLFPPKPKDTLMISRTPEVTCVVVDVSNEDPEVKFNWYVDGVEVHNAKTKPREEQYNSTYRVVSVLTVLHQDWLNGKEYKCKVSNKALPAPIEKTISKAKGQPREPQVYTLPPSRDELTKNQVSLTCLVKGFYPSDIAVEWESNGQPENNYKTTPPVLDSDGSFFLYSKLTVDKSRWQQGNVFSCSVMHEALHNHYTQESLSLSP
light: not shown
notes: IgG1 type

Each binder was assayed against T1, human FcγRIIb extracellular domain with … (assay: SPR (Biacore), antibody captured, FcγR as analyte).

Row | Binder | KD(IIb) of parent polypeptide/KD(IIb) of altered polypeptide [fold vs IL6R-B3/IL6R-L]
1 | B1 | 2.1
2 | B2 | 2.6
3 | B3 | 2.8
4 | B4 | 9.7
5 | B5 | 2.1
